Laboratory results as given in patent US9187567 (PARKINSON S INSTITUTE, dated 2015).

Legend:
Assay in all cases: 14-3-3 overlay (far-western) assay
[1] = target: T1, GFP tagged, full length LRRK2 I2020T (human, UniProt Q5S007 1-2527)
T1 construct: mature; also called 12020T (so in the source); not shown: GFP tag, amino-terminal

[2] = target: T2, GFP tagged, full length LRRK2 Ser973Ala (human, UniProt Q5S007 1-2527)
T2 construct: mature; also called S973A; GFP-LRRK2-S973A; not shown: GFP tag, amino-terminal
T2 sequence (Q5S007 whole entry S973A): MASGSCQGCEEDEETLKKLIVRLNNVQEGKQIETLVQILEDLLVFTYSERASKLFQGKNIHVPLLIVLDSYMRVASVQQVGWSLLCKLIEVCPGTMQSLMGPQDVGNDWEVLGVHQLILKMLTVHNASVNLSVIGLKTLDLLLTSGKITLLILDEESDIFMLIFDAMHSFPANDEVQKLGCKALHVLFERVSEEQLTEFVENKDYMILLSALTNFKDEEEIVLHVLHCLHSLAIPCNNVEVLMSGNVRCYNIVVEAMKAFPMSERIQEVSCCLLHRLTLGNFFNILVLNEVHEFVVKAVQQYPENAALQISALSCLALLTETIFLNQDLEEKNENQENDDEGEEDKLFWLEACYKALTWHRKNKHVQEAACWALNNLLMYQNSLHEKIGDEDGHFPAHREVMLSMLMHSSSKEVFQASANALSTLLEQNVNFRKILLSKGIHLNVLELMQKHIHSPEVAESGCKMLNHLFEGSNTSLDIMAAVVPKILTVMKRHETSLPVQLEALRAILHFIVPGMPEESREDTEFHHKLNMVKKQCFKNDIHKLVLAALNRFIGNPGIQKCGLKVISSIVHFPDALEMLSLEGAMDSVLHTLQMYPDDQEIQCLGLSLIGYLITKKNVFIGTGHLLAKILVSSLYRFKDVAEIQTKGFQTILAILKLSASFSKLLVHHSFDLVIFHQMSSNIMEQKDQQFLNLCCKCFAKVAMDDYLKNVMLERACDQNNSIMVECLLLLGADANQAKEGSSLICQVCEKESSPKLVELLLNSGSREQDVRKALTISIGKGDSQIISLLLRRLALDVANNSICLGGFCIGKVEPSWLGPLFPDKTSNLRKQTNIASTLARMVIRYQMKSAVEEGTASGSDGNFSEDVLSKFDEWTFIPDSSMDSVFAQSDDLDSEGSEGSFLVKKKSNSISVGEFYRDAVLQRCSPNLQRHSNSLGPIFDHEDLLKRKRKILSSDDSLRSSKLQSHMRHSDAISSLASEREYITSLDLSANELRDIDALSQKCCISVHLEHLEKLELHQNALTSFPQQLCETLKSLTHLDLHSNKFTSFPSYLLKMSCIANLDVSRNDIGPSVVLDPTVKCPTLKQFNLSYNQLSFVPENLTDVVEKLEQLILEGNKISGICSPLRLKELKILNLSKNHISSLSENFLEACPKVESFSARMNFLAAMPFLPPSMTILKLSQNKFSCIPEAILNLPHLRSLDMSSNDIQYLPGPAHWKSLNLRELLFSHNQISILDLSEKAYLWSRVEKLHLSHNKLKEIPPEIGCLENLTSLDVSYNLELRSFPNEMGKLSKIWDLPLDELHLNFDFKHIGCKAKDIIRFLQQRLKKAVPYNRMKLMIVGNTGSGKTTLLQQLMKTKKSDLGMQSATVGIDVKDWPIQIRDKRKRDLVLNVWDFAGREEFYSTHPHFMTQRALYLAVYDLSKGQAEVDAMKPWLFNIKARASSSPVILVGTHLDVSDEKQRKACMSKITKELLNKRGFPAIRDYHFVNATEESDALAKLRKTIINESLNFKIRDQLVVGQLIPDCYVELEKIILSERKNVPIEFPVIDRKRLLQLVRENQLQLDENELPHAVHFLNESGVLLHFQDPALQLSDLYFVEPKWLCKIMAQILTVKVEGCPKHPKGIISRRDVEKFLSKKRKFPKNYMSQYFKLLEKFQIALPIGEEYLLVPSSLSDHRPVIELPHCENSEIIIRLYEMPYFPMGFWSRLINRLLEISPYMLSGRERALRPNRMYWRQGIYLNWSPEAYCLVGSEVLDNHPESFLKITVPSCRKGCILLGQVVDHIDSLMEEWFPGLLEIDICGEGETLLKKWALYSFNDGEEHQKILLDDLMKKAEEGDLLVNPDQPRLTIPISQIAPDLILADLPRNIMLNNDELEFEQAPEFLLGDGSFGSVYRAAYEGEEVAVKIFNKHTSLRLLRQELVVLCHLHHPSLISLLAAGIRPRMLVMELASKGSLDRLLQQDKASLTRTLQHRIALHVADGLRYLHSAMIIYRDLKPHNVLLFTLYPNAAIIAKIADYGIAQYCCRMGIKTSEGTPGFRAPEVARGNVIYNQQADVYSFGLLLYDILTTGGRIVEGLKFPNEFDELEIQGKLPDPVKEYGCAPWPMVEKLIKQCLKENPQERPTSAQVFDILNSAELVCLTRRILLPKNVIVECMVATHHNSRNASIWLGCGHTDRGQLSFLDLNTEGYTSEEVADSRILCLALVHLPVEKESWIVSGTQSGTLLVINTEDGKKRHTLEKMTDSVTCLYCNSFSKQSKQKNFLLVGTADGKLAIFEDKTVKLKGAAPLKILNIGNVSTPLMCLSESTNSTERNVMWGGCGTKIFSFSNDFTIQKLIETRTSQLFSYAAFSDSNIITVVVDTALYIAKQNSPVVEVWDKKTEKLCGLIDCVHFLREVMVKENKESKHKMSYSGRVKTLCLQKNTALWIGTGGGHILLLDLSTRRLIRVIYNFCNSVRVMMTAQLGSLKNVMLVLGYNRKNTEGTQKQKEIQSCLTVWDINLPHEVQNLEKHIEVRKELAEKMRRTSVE

[3] = target: T3, GFP tagged, full length LRRK2 Ser910Ala (human, UniProt Q5S007 1-2527)
T3 construct: mature; also called S910A; not shown: GFP tag, amino-terminal
T3 sequence (Q5S007 whole entry S910A): as the sequence (Q5S007 whole entry S973A) above, with S910A, A973S counted along it

[4] = target: T4, GFP tagged, full length LRRK2 Ser935Ala (human, UniProt Q5S007 1-2527)
T4 construct: mature; also called S935A; not shown: GFP tag, amino-terminal
T4 sequence (Q5S007 whole entry S935A): as the sequence (Q5S007 whole entry S973A) above, with S935A, A973S counted along it

[5] = target: T5, GFP tagged, full length LRRK2 from cells treated with 1 µM LRRK2-IN1 for 90 minutes (human, UniProt Q5S007 1-2527, Serines 910, 935, 955 and 973 dephosphorylated by LRRK2-IN1 treatment of the cells)
T5 construct: mature; Same polypeptide as m10; It differs only in phosphorylation state; also called LRRK2-IN1 treated LRRK2; not shown: GFP tag, amino-terminal
T5 sequence (Q5S007 whole entry): as the sequence (Q5S007 whole entry S973A) above, with A973S counted along it

[6] = target: T6, GFP tagged, full length LRRK2 Ser955Ala (human, UniProt Q5S007 1-2527)
T6 construct: mature; also called S955A; GFP-LRRK2-S955A; not shown: GFP tag, amino-terminal
T6 sequence (Q5S007 whole entry S955A): as the sequence (Q5S007 whole entry S973A) above, with S955A, A973S counted along it

T1 sequence (Q5S007 whole entry I2020T): as the sequence (Q5S007 whole entry S973A) above, with A973S, I2020T counted along it

binding result [1]: no binding
binding result [2]: binds
binding result [3]: no binding
binding result [4]: no binding
binding result [5]: binds
binding result [6]: binds
B1: LiCOR Dyelight labelled 14-3-3 protein (recombinant, His tagged BMH1) (other, UniProt P29311 1-267, looked up)
chain: MSTSREDSVYLAKLAEQAERYEEMVENMKTVASSGQELSVEERNLLSVAYKNVIGARRASWRIVSSIEQKEESKEKSEHQVELICSYRSKIETELTKISDDILSVLDSHLIPSATTGESKVFYYKMKGDYHRYLAEFSSGDAREKATNASLEAYKTASEIATTELPPTHPIRLGLALNFSVFYYEIQNSPDKACHLAKQAFDDAIAELDTLSEESYKDSTLIMQLLRDNLTLWTSDMSESGQAEDQQQQQQHQQQQPPAAAEGEAPK
modifications: fluorescent dye label (LiCOR Dyelight)
notes: also called fluorescent dye labeled recombinant 14-3-3; not shown: His tag
